The subject of experiment [1] is Botrytis cinerea R16. The experiment is described as follows: In vitro antifungal assay, IncuCyte Zoom monitoring of fungal growth from spore suspension. It counts as cell-based. As for the experimental part: Two-fold dilutions of purified VHH 10G11Q were prepared in 96-well microtiter plates. To 20 μl of these dilutions and to 20 μl of water as a control, 80 μl of fungal spore suspension (1 E+05 spores/ml in half strength potato dextrose broth (PDB)) were added, starting with a final VHH 10G11Q concentration of 10 μM. The test plates were incubated for 36 h at 25° C. using the IncuCyte Zoom live cell imaging system. All tests were performed in at least 2 replicates.
Two-fold dilutions of purified VHH 10G11Q and 41D01 were prepared in 96-well microtiter plates. To 20 μl of these dilutions and to 20 μl of water as a control, 80 μl of fungal spore suspension (1 E+05 spores/ml in half strength potato dextrose broth (PDB)) were added, starting with a final VHH 10G11Q concentration of 40 μM. The test plates were incubated for 48 h at 25° C. using the IncuCyte Zoom live cell imaging system. All tests were performed in at least 2 replicates.
Microplate graphs were generated using the time plot feature in the graph/export menu of the IncuCyte® Base Analysis Software. Raw data for confluence of treated samples at mid log growth were exported to GraphPad Prism 8 and plotted as a semi logarithmic function of the standard concentrations. IC50 values are extrapolated after fitting the data with a four-parameter logistic regression curve. Pathogen sensitivity is measured based on the IC50, which refers to the concentration (μM) that inhibits 50% of spore germination and/or mycelial growth.

Experiment [2] concerns Botrytis cinerea R16. The note with it: several test strains, including Botrytis cinerea R16; WO2014/177595 A1 and WO2014/191146 A1; cited from earlier work.
Another experiment has as its system Fraction 3. The experiment can be described thus: ELISA with biotinylated liposomes on streptavidin-coated plates. Type of experiment: binding, Botrytis cinerea. The following applies: screen for additional Fraction 3 binders (FIG. 13). From the text:
Dissociation constants (Kd) can be estimated based on the results of an ELISA. In equilibrium analysis as in ELISA, the Kd can be calculated from the equilibrium binding response. Where the ELISA plate wells are coated with a target antigen, and where the target antigen may be a lipid-containing fraction of the membrane of Botrytis cinerea, such a method may further use a range of concentrations of a polypeptide binding the target antigen. Where the ELISA generally provides a quantitative adsorption measure for each polypeptide concentration representing binding of the polypeptide to the target antigen, the range of concentration of a polypeptide may for example be 0.5, 1, 2.5, 5, and 10 μM. The most suitable range of concentrations used can vary depending on the affinity of the polypeptide to the target antigen. The corresponding absorption values as determined by ELISA may result in a sigmoid curve when absorption values are plotted against the logarithmic conversion of the polypeptide concentrations. This sigmoid curve may serve to define an IC50 value. Where this IC50 is the concentration of polypeptide where the corresponding absorption value is 50% of the saturated value as estimated by the maximum of the sigmoidal function, the Kd can be estimated by 1/Ka were the association constant (Ka) can be estimated as 1/IC50. Thus Kd corresponds to the analyte concentration that reaches equilibrium at 50% binding saturation. Commonly computation methods can be used for these calculations. For example, this can be done using GraphPad. In some embodiments, the Kd may be determined by surface plasmon resonance (SPR).
The above-mentioned method for the formation of liposomes (Example 12) was modified with the addition of a biotinylated lipid (12:0 Biotinyl M G (1-(12-N-biotin)aminododecanoyl-rac-glycerol), Sigma Aldrich), to allow for use of these liposomes for ELISA using streptavidin-coated plates (Pierce™ Streptavidin Coated High Capacity Plates, Clear, 96-Well, blocked with SuperBlock™ Buffer, Thermo Fisher Scientific).
To estimate the dissociation constant Kd value of 10G11 binding to Fraction 3, the ELISA set-up with biotinylated liposomes from Fraction 3 as described in Example 13 was used. 10G11 polypeptide was added in the following concentrations: 0.5, 1, 2.5, 5, and 10 μM, prepared by a serial dilution in phosphate buffer. […] This plot was used to estimate the Kd dissociation constant using GraphPad. Where non-linear regression fitting was used.

The test system of experiment [3] is Colletotrichum orbiculare. The experiment can be described thus: Control of anthracnose on squash in glasshouse. The note with it: 175, 350, 700 g ai/ha, 4 applications; until 2 weeks after the last application; vs non-treated inoculated control (FIG. 18). Type of experiment: in vivo. As for the experimental part: Four replicates of pot-grown squash plants (2 plants/pot) were sprayed with 125 ml aqueous suspension, containing a concentration of active ingredient as described in Table 2. Four applications were done spaced 6 or 7 days apart. Plants were inoculated once with Colletotrichum orbiculare two days after the first application (application A) of active ingredient. The efficacy of 10G11Q was compared to that of a non-treated control and the chemical reference Bravo WS (Chlorothalonil).
Disease severity is recorded as percent severity on a scale of 0-100%. Recording started when first symptoms appeared followed by regular assessment till 2 weeks after the fourth application (application D) of the active ingredient.

Experiment [4] deals with Botrytis cinerea R16. The experiment is described as follows: Prolonged incubation antifungal assay followed over 14 days. It counts as cell-based. The following applies: followed over a period of 14 days (FIG. 9). As for the experimental part:
Two-fold dilutions of purified VHH 10G11Q were prepared in 96-well microtiter plates. To 20 μl of these dilutions and to 20 μl of water as a control, 80 μl of fungal spore suspension (1 E+05 spores/ml in half strength potato dextrose broth (PDB)) were added, starting with a final VHH 10G11Q concentration of 10 μM. […] All tests were performed in at least 2 replicates.

B1: 10G11Q-His: 10G11Q polypeptide with a C-terminal addition of a 6× His-Tag (SEQ ID NO: 148) (protein)
VHH: QVQLQESGGGLVQAGGSLRLSCAASRSIFSINAMDWYRQAPGKQREWVAGITRGGTTKYADSVKGRFTISRDNAKKKVYLQMNSLKPEDTAVYYCNVLRGEQPWTRDYWGQGTQVTVSSAAAHHHHHH
modifications: C-terminal 6xHis tag
Regarding B1, the “antifungal activity of his-tagged variant relative to 10G11Q” value in the experiment with Botrytis cinerea R16 [1] (assay as in Example 5 (FIG. 4)) was “significantly improved anti-fungal activity”.

B2: 41D01: anti-glucosylceramide binding VHH described in WO2014/177595 A1 and WO2014/191146 A1 (protein)
VHH: QVQLQESGGGLVQAGGSLRLSCAASGRTFSRYGMGWFRQLPGKQRELVTSITRGGTTTYADSVKGRFTISRDNAKNTVYLQMNSLKPEDTAVYYCNARSIWRDYWGQGTQVTVSS
modifications: left off: small tags and cut ends
For B2, in the experiment with Botrytis cinerea R16 [2], the “antifungal activity among anti-glucosylceramide binding VHHs” value was “most prominent antifungal activity”.

B3: 12C03Q: VHH polypeptide, SEQ ID NO: 5 (protein)
VHH: QVQLQESGGGLVQAGDSLRLSCAASISDRAFSRHVMGWFRQPPGKEREFVAAIGWTGRRTYYADSVKGRFTISRDNAMNTVYLQMNSLKPEDTAVYYCAASHFYSVSFEINDYDYWGQGTQVTVSS
For B3, the “binding to Fraction 3 by ELISA” value in the experiment on Fraction 3 was “Fraction 3 binding”.

B4: 10G11Q: VHH polypeptide, SEQ ID NO: 1, begins with a Q residue (protein)
VHH: QVQLVESGGGLVQAGGSLRLSCAASRSIFSINAMDWYRQAPGKQREWVAGITRGGTTKYADSVKGRFTISRDNAKKKVYLQMNSLKPEDTAVYYCNVLRGEQPWTRDYWGQGTQVTVSS
B4: in experiment [3], the “percent severity of anthracnose on squash” value is “clear and dose-related growth inhibition pattern”. Further, the “% fungal growth (total green object area) in function of VHH concentration” value in the experiment with Botrytis cinerea R16 [1] (two-fold dilutions from 10 μM, 36 h at 25° C. (FIG. 1)) is on record as “clear dose-dependent growth inhibition pattern”. Further, the “growth inhibition compared to VHH 41D01” value with Botrytis cinerea R16 [1] (two-fold dilutions from 40 μM, 48 h at 25° C. (FIG. 2)) is “more prominent growth inhibition pattern”.

B5: Mutant 10: 10G11 charge variant: W100aK and T100bK substitutions in CDR3 (SEQ ID NO: 16) (protein)
VHH: DVQLVESGGGLVQAGGSLRLSCAASRSIFSINAMDWYRQAPGKQREWVAGITRGGTTKYADSVKGRFTISRDNAKKKVYLQMNSLKPEDTAVYYCNVLRGEQPKKRDYWGQGTQVTVSS
In the case of B5, in the experiment on Botrytis cinerea R16 [1] (assay as in Example 5 (FIG. 6)), the “antifungal activity of charge variants relative to 10G11” value was “significant increase in antifungal activity”.

B6: Mutant 6: 10G11 charge variant: S27H, I28H and S30H substitutions in CDR1 (SEQ ID NO: 12) (protein)
VHH: DVQLVESGGGLVQAGGSLRLSCAASRHHFHINAMDWYRQAPGKQREWVAGITRGGTTKYADSVKGRFTISRDNAKKKVYLQMNSLKPEDTAVYYCNVLRGEQPWTRDYWGQGTQVTVSS
With B6, the “antifungal activity of charge variants relative to 10G11” value with Botrytis cinerea R16 [1] (assay as in Example 5 (FIG. 6)) is listed as “on par antifungal activity with 10G11”.

B7: Mutant 11: 10G11 charge variant: S27K, I28K, S30K in CDR1 and W100aK, T100bK in CDR3 (SEQ ID NO: 17) (protein)
VHH: DVQLVESGGGLVQAGGSLRLSCAASRKKFKINAMDWYRQAPGKQREWVAGITRGGTTKYADSVKGRFTISRDNAKKKVYLQMNSLKPEDTAVYYCNVLRGEQPKKRDYWGQGTQVTVSS
For B7, the “effect on preventing spore outgrowth” value with Botrytis cinerea R16 [4] was “sustained effect on preventing spore outgrowth”. In the experiment on Botrytis cinerea R16 [1] (assay as in Example 5 (FIG. 6)), the “antifungal activity of charge variants relative to 10G11” value is given as “significant increase in antifungal activity” and the “increase in anti-fungal activity over 10G11” value is reported as “up to 5 fold”.

B8: Mutant 8: 10G11 charge variant: S27H, I28H, S30H in CDR1 and W100aH, T100bH in CDR3 (SEQ ID NO: 14) (protein)
VHH: DVQLVESGGGLVQAGGSLRLSCAASRHHFHINAMDWYRQAPGKQREWVAGITRGGTTKYADSVKGRFTISRDNAKKKVYLQMNSLKPEDTAVYYCNVLRGEQPHHRDYWGQGTQVTVSS
For B8, the “antifungal activity of charge variants relative to 10G11” value with Botrytis cinerea R16 [1] (assay as in Example 5 (FIG. 6)) is “significant increase in antifungal activity”.

B9: Mutant 9: 10G11 charge variant: S27K, I28K and S30K substitutions in CDR1 (SEQ ID NO: 15) (protein)
VHH: DVQLVESGGGLVQAGGSLRLSCAASRKKFKINAMDWYRQAPGKQREWVAGITRGGTTKYADSVKGRFTISRDNAKKKVYLQMNSLKPEDTAVYYCNVLRGEQPWTRDYWGQGTQVTVSS
With B9, the “effect on preventing spore outgrowth” value with Botrytis cinerea R16 [4] was “sustained effect on preventing spore outgrowth”. In addition, the “antifungal activity of charge variants relative to 10G11” value in the experiment with Botrytis cinerea R16 [1] (assay as in Example 5 (FIG. 6)) is listed as “significant increase in antifungal activity”.

B10: Mutant 7: 10G11 charge variant: W100aH and T100bH substitutions in CDR3 (SEQ ID NO: 13) (protein)
VHH: DVQLVESGGGLVQAGGSLRLSCAASRSIFSINAMDWYRQAPGKQREWVAGITRGGTTKYADSVKGRFTISRDNAKKKVYLQMNSLKPEDTAVYYCNVLRGEQPHHRDYWGQGTQVTVSS
Take B10: in the experiment with Botrytis cinerea R16 [1] (assay as in Example 5 (FIG. 6)), the “antifungal activity of charge variants relative to 10G11” value is given as “on par antifungal activity with 10G11”.

B11: 10E11Q: VHH polypeptide, SEQ ID NO: 3 (protein)
VHH: QVQLQESGGGLVQAGGSLRLSCAASGTIFRPTAMGWYRQAPGKERELVATITTGGSTKYADSVKGRFTISRGNAKNTVYLQMSSLKPEDTAVYYCNAQWGVRTRDYWGQGTQVTVSS
For B11, the “binding to Fraction 3 by ELISA” value in the experiment with Fraction 3 is reported as “Fraction 3 binding”.

Source of the values: US12098378B2, “Anti-fungal polypeptides” (priority 2020, dated 2024).
